# Assay results published in US20250235501A1, “Methods and Compositions for Treating or Preventing Neurological Injury or Neurological Disorders” (University of Connecticut, priority 2024, published 2025).
# Target: T1, NMDARs (Rattus norvegicus, UniProt Q00959+Q00960)
# T1 construct: TRPM2 plasmid a gift 17928; 17924; 17925; host or cells: HEK293T
# Experiment: NMDAR currents in HEK-293T cells transfected with NMDARs and TRPM2 (whole cell recording)
# Type: cell-based, human
# Conditions: 10 μM peptide overnight; 10 μM NMDA, -80 mV
# Experimental: FIGS. 5G and 5H show the effects of TAT-EE3 on NMDAR currents in HEK-293T cells transfected with NMDARs and TRPM2. Transfected cells were treated with 10 μM TAT-EE3 or TAT-SC for overnight. FIG. 5G is representative NMDAR currents elicited at −80 mV by exposing to 10 μM NMDA for about 2 to 4 s.
# were ordered from GenScript Biotech, and dissolved in PBS to make a stock concentration at 10 mM. HEK-293T cells or isolated neurons were treated with TAT-SC or TAT-EE3 at a concentration of 10 μM for at least 8 h prior to use. Mice were injected with TAT-SC or TAT-EE3 intraperitoneally (ip) at a dose of 100 nmol/kg.
# Whole cell currents were recorded using an Axopatch 200B amplifier. Data were digitized at 10 or 20 kHz and digitally filtered offline at 1 kHz. Patch electrodes were pulled from borosilicate glass and fire-polished to a resistance of ˜3 MΩ when filled with internal solutions. Series resistance (Rs) was compensated up to 90% to reduce series resistance errors to <5 mV. Cells in which Rs was >10 MΩ were discarded (Du, J., Xie, J., and Yue, L. (2009). Modulation of TRPM2 by acidic pH and the underlying mechanisms for pH sensitivity. J Gen Physiol 134, 471-88).
# For heterologous expression, transfected HEK-293 cells were identified by GFP fluorescence. […]
# T1 sequence (Q00959 23-1464, other chains not shown): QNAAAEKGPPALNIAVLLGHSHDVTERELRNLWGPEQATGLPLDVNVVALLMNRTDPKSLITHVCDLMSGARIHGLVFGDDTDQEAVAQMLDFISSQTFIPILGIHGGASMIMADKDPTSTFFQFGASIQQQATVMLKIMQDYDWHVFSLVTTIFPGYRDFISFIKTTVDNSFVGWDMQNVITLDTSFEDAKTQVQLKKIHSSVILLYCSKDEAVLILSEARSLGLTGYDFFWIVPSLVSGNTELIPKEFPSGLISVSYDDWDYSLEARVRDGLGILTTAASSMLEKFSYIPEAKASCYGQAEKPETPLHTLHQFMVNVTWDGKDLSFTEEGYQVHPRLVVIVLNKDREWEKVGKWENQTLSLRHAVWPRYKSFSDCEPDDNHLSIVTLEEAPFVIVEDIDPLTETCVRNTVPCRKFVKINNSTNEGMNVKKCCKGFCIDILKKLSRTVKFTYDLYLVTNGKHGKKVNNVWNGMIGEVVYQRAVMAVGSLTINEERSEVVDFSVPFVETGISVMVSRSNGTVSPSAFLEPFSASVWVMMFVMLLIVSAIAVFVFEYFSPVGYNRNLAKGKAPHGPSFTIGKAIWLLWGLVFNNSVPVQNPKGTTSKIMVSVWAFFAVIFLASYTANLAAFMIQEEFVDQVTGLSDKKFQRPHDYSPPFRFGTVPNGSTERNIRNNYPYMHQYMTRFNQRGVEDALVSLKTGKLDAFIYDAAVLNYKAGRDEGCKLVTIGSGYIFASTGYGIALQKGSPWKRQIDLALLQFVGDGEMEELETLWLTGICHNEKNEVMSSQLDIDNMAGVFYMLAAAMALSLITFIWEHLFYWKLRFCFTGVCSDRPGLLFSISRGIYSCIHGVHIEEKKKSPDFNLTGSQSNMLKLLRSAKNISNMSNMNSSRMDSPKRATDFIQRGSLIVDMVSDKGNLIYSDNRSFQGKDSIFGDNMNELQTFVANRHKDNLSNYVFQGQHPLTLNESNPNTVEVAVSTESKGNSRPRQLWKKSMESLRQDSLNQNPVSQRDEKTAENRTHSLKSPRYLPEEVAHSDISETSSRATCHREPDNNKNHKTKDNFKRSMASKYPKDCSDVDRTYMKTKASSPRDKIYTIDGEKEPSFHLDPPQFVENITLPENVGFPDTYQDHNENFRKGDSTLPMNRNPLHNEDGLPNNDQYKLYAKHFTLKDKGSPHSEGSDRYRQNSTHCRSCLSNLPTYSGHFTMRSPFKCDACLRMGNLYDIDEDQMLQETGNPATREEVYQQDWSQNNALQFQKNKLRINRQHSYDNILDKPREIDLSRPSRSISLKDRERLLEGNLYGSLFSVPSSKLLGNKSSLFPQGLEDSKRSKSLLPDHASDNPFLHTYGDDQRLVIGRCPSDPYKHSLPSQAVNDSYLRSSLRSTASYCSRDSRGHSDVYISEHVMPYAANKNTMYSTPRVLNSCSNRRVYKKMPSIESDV
# T1 sequence (Q00960 27-1482, other chains not shown): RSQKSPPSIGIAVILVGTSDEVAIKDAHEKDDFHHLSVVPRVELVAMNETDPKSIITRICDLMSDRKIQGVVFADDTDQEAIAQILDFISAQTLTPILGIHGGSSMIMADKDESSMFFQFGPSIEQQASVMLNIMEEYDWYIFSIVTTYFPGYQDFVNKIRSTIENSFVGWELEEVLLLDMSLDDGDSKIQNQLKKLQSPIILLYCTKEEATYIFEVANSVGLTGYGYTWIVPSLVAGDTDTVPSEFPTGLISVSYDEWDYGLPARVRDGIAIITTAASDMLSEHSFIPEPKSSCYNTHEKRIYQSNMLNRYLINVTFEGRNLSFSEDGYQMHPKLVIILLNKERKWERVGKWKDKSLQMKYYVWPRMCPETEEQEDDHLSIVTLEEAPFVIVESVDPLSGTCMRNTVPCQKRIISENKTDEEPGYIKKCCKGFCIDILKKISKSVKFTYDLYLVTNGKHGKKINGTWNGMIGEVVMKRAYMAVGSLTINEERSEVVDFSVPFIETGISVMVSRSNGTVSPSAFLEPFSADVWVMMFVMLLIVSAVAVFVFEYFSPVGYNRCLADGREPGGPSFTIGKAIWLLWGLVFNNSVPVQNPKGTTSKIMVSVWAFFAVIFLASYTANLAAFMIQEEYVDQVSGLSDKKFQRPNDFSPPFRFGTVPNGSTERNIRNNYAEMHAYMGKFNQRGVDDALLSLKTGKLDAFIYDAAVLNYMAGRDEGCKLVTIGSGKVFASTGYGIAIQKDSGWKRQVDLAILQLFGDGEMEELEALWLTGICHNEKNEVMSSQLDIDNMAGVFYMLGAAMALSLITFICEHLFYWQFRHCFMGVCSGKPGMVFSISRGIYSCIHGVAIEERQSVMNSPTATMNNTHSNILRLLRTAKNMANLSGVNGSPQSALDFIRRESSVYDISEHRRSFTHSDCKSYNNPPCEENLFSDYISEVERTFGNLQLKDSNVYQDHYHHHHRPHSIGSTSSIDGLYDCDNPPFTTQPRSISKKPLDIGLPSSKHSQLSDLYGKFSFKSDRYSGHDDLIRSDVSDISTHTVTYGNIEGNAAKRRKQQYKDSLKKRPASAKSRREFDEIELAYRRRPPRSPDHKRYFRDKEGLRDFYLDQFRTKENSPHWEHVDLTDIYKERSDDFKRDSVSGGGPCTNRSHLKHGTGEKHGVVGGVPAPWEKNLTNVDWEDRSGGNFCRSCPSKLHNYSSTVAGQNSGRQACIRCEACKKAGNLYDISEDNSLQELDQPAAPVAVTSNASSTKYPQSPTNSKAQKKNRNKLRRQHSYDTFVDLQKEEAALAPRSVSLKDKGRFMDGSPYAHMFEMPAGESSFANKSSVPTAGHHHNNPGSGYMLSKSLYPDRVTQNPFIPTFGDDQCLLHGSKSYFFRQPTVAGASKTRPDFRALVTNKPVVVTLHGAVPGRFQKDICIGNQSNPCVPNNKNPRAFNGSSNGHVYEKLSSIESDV
substance,measurement,value
"TAT-EE3: membrane permeable disrupting peptide, sequence YGRKKRRQRRREEDTDSSEEMLALAEE (SEQ ID NO: 4)",NMDAR current amplitude,significantly smaller than that in cells treated with TAT-SC
